Experimental data as given in US20060141546A1, “Bacterial test method by glycated label binding” (priority 2002, published 2006).

Columns and labels:
Serratia marcescens = test: ALP binding compared to E. coli (Table 1)
Procedure: (§1) Bacterial cells ([…] to 10^8 cells/mL) were washed twice with water after centrifugation to separate the cells into a packed pellet from supernatant liquid. The washed cells in pellet form were suspended in 40 μL water and 10 μL of aqueous bovine intestinal alkaline phosphatase (ALP) was added (2 μg or […]). The mixture was left at room temperature for 30 minutes and then centrifuged, after which the bacterial pellets were washed with water 4-5 times (50 μL). All the washing supernatants were combined. A blank without cells was diluted in the same way. The final pellets were suspended in 50 μl water and both supernatants and cell suspensions were assayed for detection of ALP binding using 2.5 μl of 0.005 M para-nitrophenol phosphate (PNPP) in Tris or EPPS buffer at pH 7.5. The hydrolysis of the substrate results in yellow (PNPP) or blue-green (BCIP) color that is directly proportional to the amount of ALP bound to the bacteria. Alkaline phosphatase (ALP) activity was tested using common substrates such as BCIP (bromo-chloro-indolyl-phosphate) forming a blue/green color in Tris buffer, pH 7.5. After 10 minutes at room temperature the samples were read in a plate reader (Biotek Powerwave Absorbance Reader) at a wavelength of 405 nm. The parallel set of bacteria was run without addition of ALP as controls.
(§2) The bacteria used to illustrate the invention represent the extremes of gram positive (S. facaelis) and gram negative (E. coli) bacteria. […] The nature of the difference in the cell walls is greatest between the gram negative and positive forms of bacteria.

Klebsiella pneumoniae = test: ALP binding compared to E. coli (Table 1)
Procedure: as §1, §2

Citrobacter koseri = test: ALP binding compared to E. coli (Table 1)
Procedure: as §1, §2

Klebsiella oxytoca = test: ALP binding compared to E. coli (Table 1)
Procedure: as §1, §2

Diphtheroids (gnb) = test: ALP binding compared to E. coli (Table 1)
Procedure: as §1, §2

Proteus mirabilis = test: ALP binding compared to E. coli (Table 1)
Procedure: as §1, §2

Pseudomonas aeruginosa = test: ALP binding compared to E. coli (Table 1)
Procedure: as §1, §2

Morganella morganii = test: ALP binding compared to E. coli (Table 1)
Procedure: as §1, §2

Citrobacter freundii = test: ALP binding compared to E. coli (Table 1)
Procedure: as §1, §2

bacteria = test: Saturation binding / Scatchard analysis of glycoprotein binding to bacteria; settings: ALP to bacteria
Description: There are several methods used to measure binding affinity. The methods of Lineweaver-Burke and Eadie-Hofstee are most popular. The data is used to create a Scatchard plot, where the X axis is the glycoprotein bound and the Y axis is glycoprotein bound divided by the free glycoprotein. From this graph the number of binding sites (also called Bmax, receptor number) is the X intercept and binding constant (also called affinity constant, Kd, or the equilibrium dissociation constant) is the negative reciprocal of the slope. Changes in slope reflect changes in the nature of binding sites and are often used to separate high affinity binding from low affinity binding sites. Commercially available software (GraphPad software Inc) exist to perform this analysis. Only high affinity binding was used in the instant experiments.
Experimentally, saturation binding experiments are used measure glycoprotein binding at equilibrium at various concentrations of the glycoprotein. The saturation curve is a first constructed to plot the concentration of glycoprotein ligand on the X axis versus the all glycoprotein bound on the cell expressed as concentration of glycoprotein bound/number of bacteria cells on the Y axis. […] This same data is next plotted as a Scatchard plot with the number of binding sites and binding constants determined for the pairs of glycoprotein and bacteria tested. […]

E. coli = test: Membrane (Loprodyne) separation of bacteria bound ALP (Example 6, Table 4); type: binding
Procedure: Bacteria bound to alkaline phosphatase (ALP) can be separated using a membrane (low protein binding Nylon 66 Loprodyne) on backed microtiter plates (Nunc Nalge International).
The loprodyne-membrane-backed plates were treated with 1 or 2% detergent (Tween 20 or TritonX305) in water or buffers (TBS: Tris, 25 mM, pH 7.6 containing 150 mM NaCl or KCO3: 0.1M, pH 9.6) overnight at room temperature. Blocking solutions were vacuum filtered. […] The combined solution was incubated for 15 min at 37° C. on a shaker and then added to the loprodyne-membrane-backed plate.
The solution was vacuum filtered leaving bacteria adhered on the membrane and then washed twice with 2% Tween20 in water. To the washed membrane, 200 μl of H2O with 50 μl Glycine (0.05M, pH 10.4) and containing 1 mM PNPP were added and the color formed due to the bacteria bound ALP read at 405 nm.
The separation of E. Coli with bound ALP from unbound ALP is shown by a size exclusion membrane in Example 6 and by centrifugation in Examples 1-5. The size of E. Coli is 1×1×2 μm and any membrane, filter or device trapping particles of this size would be acceptable. These include microfluidic devices, filters, column chromatography and chromatography strips. The mass of E. Coli is 1.6×10^−12 gm/cell and any membrane, filter or device trapping a mass of this size would be also acceptable.

[1] = test system: Escherichia Coli (E. Coli); test: Bacteria assay by binding of intestinal ALP (Example 1, FIG. 8, Table 1)
Procedure: as §1

[2] = test system: Staphylococcus aureus (Sf) strains # 3 and #6; test: Bacteria assay by binding of intestinal ALP (Example 1, FIG. 8); settings: gram positive, strains # 3 and #6, FIG. 8
Procedure: as §1

[3] = test system: gram negative and positive bacteria; test: Bacteria assay by binding of intestinal ALP, all strains (Example 1); settings: for ALP binding to bacterial strains tested: FIG. 8, Table 1
Procedure: as §1, §2

B1: ALP: bovine intestinal alkaline phosphatase, glycoprotein enzyme that binds bacteria and serves as label (protein, UniProt P19111 20-506, looked up)
Intestinal-type alkaline …: LVPVEEEDPAFWNRQAAQALDVAKKLQPIQTAAKNVILFLGDGMGVPTVTATRILKGQMNGKLGPETPLAMDQFPYVALSKTYNVDRQVPDSAGTATAYLCGVKGNYRTIGVSAAARYNQCKTTRGNEVTSVMNRAKKAGKSVGVVTTTRVQHASPAGAYAHTVNRNWYSDADLPADAQMNGCQDIAAQLVNNMDIDVILGGGRKYMFPVGTPDPEYPDDASVNGVRKRKQNLVQAWQAKHQGAQYVWNRTALLQAADDSSVTHLMGLFEPADMKYNVQQDHTKDPTLQEMTEVALRVVSRNPRGFYLFVEGGRIDHGHHDDKAYMALTEAGMFDNAIAKANELTSELDTLILVTADHSHVFSFGGYTLRGTSIFGLAPSKALDSKSYTSILYGNGPGYALGGGSRPDVNDSTSEDPSYQQQAAVPQASETHGGEDVAVFARGPQAHLVHGVEEETFVAHIMAFAGCVEPYTDCNLPAPTTATSIPD
Serratia marcescens
  ALP binding relative to E. coli: 101%
Klebsiella pneumoniae
  ALP binding relative to E. coli: 105%
Citrobacter koseri
  ALP binding relative to E. coli: 93%
Klebsiella oxytoca
  ALP binding relative to E. coli: 111%
Diphtheroids (gnb)
  ALP binding relative to E. coli: 91%
Proteus mirabilis
  ALP binding relative to E. coli: 104%
Pseudomonas aeruginosa
  ALP binding relative to E. coli: 99%
Morganella morganii
  ALP binding relative to E. coli: 95%
Citrobacter freundii
  ALP binding relative to E. coli: 89%
bacteria; Scatchard analysis, high affinity binding
  binding constant: 5×10^+6
bacteria; estimated from the Scatchard analysis
  number of binding sites: 590
E. coli; No Bacteria, ALP concentration 1.0 mU
  Bacteria Binding to ALP (O.D. at 405 nm): 0.04 O.D.
E. coli; No Bacteria, ALP concentration 2.0 mU
  Bacteria Binding to ALP (O.D. at 405 nm): 0.05 O.D.
E. coli; No Bacteria, ALP concentration 5.0 mU
  Bacteria Binding to ALP (O.D. at 405 nm): 0.16 O.D.
E. coli; Plus Bacteria, ALP concentration 1.0 mU
  Bacteria Binding to ALP (O.D. at 405 nm): 0.13 O.D.
E. coli; Plus Bacteria, ALP concentration 2.0 mU
  Bacteria Binding to ALP (O.D. at 405 nm): 0.30 O.D.
E. coli; Plus Bacteria, ALP concentration 5.0 mU
  Bacteria Binding to ALP (O.D. at 405 nm): 0.83 O.D.
[1]; Escherichia coli
  ALP binding relative to E. coli: 100%
[1]; gram negative, strains # 9 and 14, FIG. 8
  ALP binding to bacteria (ALP activity of suspended cells after ALP treatment and washings): found to bind the ALP
[2]
  ALP binding to bacteria (ALP activity of suspended cells after ALP treatment and washings): found to bind the ALP
[3]
  ALP binding to bacterial strains tested: binding occurred to all other gram negative and positive bacteria
[3]; listed as intestinal ALP
  ALP binding to bacterial strains tested: binding to all bacterial strains tested
[3]; FIG. 9
  amount of ALP bound or activity generated versus amount of bacteria cells: directly proportional to the amount of bacteria cells present
[3]; changes of strain among gram negative and positive bacteria
  difference of ALP binding between strains relative to S. facaelis or E. coli: ≤ 12%
